“And” between values parts separate entries of the source, which are not always exact repeats. Equal entries are not always repeated.
Tested on: C57BL/6 hearts
Experiment: Langendorff, rhMIF added to perfusate, C57BL/6 hearts
Design: species or system mouse; LVP / TPP / RT90 / Max + d / Max − d: unit not given beside the values
[1] = C57BL/6 + rhMIF in perfusate, n = 3
[2] = C57BL/6 + rhMIF, single hearts by date and mean (x), n 3
[3] = C57BL/6 + rhMIF, single hearts by date and mean (x), n 3, mean

B1: rMIF: recombinant human macrophage migration inhibitory factor added to the heart perfusate at 20 ng/ml (protein, UniProt P14174 2-115, looked up)
Macrophage migration …: PMFIVNTNVPRASVPDGFLSELTQQLAQATGKPPQYIAVHVVPDQLMAFGGSSEPCALCSLHSIGKIGGAQNRSYSKLLCGLLAERLRISPDRVYINYYDMNAANVGWNNSTFA
B1 was tested, and the “Coronay Perfusion Pressue” value [1] was 86.0 ± 23 mmHg, the “Coronay Vascular Resistance” value [1] was 57.3 ± 7.7 mmHg and the “Heart Rate” value [1] was 318 ± 2 bpm. The “Left Ventricular Pressure” value [1] was 52.7 ± 6.6 mmHg, the “Time to 90% Relaxation” value [1] was 73.3 ± 4.4 ms and the “Time to Max +dP/dt” value [1] was 47.0 ± 2.1 ms. The “Time to Max −dP/dt” value [1] was 49.0 ± 1.5 ms, the “Time to Peak Pressue” value [1] was 74.0 ± 3.1 ms and the dP40 [1] was 1200 ± 115 mmHg/sec. For the same molecule, the “−dP/dt max” value [1] was 1233 ± 159 mmHg/sec, the “+dP/dt” value [2] was 1650 and 1100 and the DR [2] was 1.1 and 1.158 and 1.2. For the same molecule, the HR [2] was 320 and 315, the LVP [2] was 62 and 40 and 56 and the “Max + d” value [2] was 48 and 50 and 43. The “Max − d” value [2] was 52 and 48 and 47, the RT90 [2] was 80 and 75 and 65 and the TPP [2] was 72 and 80 and 70. For the same molecule, the dP40 [2] was 1400 and 1000 and 1200, the “−dP/dt” value [2] was 950 and 1250 and the DR [3] was 1.153. The HR [3] was 318.3333, the LVP [3] was 52.67 and the “Max + d” value [3] was 47. For the same molecule, the “Max − d” value [3] was 49, the RT90 [3] was 73.33 and the TPP [3] was 74. The “−dP/dt” value [3] was 1233.333.
